Drawing on article PMC4479312, this text covers α4β7 dependence for replication (Act-1 mAb inhibition of p24 in ATRA-treated CD4+ T cells) for four substances.

For this assay, the target named is integrin α4β7 (human α4 and β7 subunits co-expressed on 293T cells) (human) (UniProt P13612).
Chain of UniProt P13612 (P13612 34-1032, chain 1 of 2): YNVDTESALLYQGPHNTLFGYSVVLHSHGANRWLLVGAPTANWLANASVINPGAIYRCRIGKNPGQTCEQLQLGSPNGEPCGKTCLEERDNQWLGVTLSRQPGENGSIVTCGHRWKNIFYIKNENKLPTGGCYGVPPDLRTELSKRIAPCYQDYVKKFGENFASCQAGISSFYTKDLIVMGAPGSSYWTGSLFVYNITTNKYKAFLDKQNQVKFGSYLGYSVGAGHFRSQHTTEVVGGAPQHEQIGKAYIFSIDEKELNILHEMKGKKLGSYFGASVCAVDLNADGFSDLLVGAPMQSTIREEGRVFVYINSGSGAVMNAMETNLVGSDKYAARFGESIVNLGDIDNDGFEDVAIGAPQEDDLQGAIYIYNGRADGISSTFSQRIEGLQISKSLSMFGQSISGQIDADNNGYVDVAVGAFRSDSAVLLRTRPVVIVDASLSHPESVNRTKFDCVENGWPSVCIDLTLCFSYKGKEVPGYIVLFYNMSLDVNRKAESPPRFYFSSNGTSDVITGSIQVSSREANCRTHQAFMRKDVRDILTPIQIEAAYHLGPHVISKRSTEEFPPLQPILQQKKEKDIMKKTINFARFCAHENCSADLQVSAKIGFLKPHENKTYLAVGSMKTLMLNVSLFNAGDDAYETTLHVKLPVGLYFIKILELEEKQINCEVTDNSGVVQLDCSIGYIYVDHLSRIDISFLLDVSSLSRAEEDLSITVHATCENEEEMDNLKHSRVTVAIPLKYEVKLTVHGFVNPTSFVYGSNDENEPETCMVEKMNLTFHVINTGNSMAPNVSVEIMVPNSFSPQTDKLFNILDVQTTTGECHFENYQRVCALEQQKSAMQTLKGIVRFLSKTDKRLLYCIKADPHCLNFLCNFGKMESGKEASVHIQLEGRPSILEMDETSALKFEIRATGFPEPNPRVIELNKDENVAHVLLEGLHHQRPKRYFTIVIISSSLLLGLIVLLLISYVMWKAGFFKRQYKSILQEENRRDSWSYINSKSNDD
Chain of UniProt P13612 (P26010 20-798, chain 2 of 2, further chain): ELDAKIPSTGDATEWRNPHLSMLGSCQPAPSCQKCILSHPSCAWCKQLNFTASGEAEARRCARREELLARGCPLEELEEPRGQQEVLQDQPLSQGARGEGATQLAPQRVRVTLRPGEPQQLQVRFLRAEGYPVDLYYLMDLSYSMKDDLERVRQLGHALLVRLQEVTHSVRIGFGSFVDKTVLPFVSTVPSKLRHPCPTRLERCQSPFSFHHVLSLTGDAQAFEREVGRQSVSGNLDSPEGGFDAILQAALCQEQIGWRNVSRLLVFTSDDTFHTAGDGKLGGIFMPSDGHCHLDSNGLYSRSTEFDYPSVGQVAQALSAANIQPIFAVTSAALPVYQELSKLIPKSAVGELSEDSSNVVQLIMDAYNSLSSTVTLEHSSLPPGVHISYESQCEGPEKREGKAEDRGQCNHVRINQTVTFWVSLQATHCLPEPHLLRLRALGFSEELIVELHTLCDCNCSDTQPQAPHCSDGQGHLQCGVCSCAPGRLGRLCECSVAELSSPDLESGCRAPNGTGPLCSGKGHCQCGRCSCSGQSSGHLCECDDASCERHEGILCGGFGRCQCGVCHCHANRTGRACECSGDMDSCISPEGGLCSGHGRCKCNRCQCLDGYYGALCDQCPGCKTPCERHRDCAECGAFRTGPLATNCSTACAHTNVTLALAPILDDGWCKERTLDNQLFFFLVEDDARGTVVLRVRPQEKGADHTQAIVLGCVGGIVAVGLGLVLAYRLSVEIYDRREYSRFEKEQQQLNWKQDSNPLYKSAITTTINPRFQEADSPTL
“HIV-1 subtype C CAP88 transmitted/founder (T/F) envelope glycoprotein on infectious envelope clone virus (natural protein)” had a α4β7 dependence for replication (Act-1 mAb inhibition of p24 in ATRA-treated CD4+ T cells) of more than 50%.

For the substance “HIV-1 subtype C CAP200 transmitted/founder (T/F) envelope glycoprotein (SDV motif) on infectious envelope clone virus (natural protein)”, the α4β7 dependence for replication (Act-1 mAb inhibition of p24 in ATRA-treated CD4+ T cells) is more than 50%.

Take “HIV-1 subtype C CAP206 transmitted/founder (T/F) envelope glycoprotein on infectious envelope clone virus (natural protein)”: the α4β7 dependence for replication (Act-1 mAb inhibition of p24 in ATRA-treated CD4+ T cells) is more than 50%.

For the substance “HIV-1 subtype C CAP225 transmitted/founder (T/F) envelope glycoprotein (SDI motif) on infectious envelope clone virus (natural protein)”, the α4β7 dependence for replication (Act-1 mAb inhibition of p24 in ATRA-treated CD4+ T cells) is more than 50%.
